The values that follow are results of earlier work, collected in paper PMC5009806.

By pKd is commonly meant the negative decadic logarithm of the Kd, by convention in mol/L.

pKd: −log10 of the molar value.

The target in this series is amyloid beta (Homo sapiens) (UniProt P05067). Kind of series: SPR.

For Gantenerumab, the negative logarithm of the Kd (pKd) is 9.22.
